Laboratory results from the supplement of paper PMC10567573.

B1: LOC100129726 (parent)
chain: AKAADSPTRNDLESGLGHFSLRVH

Variants of: B1
Test: protein stability index of a GFP-peptide fusion (GPS, HEK-293T) (PSI 1-6); higher = more stable
Settings: c terminus: a fixed tail appended
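Also: lentivirally expressed fusions sorted by FACS into six bins by GFP to DsRed ratio, PSI derived from sequencing read proportions per bin multiplied by bin number.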

Compared with AKAADSPTRNDLESGLGHFSLRVT [H24T], AKAADSPTRNDLESGLGHFSLRVW [H24W] is lower in protein stability index: 3.41 for the first, 2.09 for the second.

First: AKAADSPTRNDLESGLGHFSLRVV [H24V]
Second: AKAADSPTRNDLESGLGHFSLRVY [H24Y]
The protein stability index of the first is higher: 2.61 for the first, 1.58 for the second.
